Biological target: TIM-1 (T cell, immunoglobulin domain and mucin domain 1), cell membrane-bound (human) (UniProt Q96D42)
Test: FACS on polarized human CD4+ Th2 cells, 10 ug/mL mAb, goat anti-human PE (control antibody background)

TIM-1 (T cell, immunoglobulin domain and mucin domain 1), cell membrane-bound (human), sequence (Q96D42 21-364): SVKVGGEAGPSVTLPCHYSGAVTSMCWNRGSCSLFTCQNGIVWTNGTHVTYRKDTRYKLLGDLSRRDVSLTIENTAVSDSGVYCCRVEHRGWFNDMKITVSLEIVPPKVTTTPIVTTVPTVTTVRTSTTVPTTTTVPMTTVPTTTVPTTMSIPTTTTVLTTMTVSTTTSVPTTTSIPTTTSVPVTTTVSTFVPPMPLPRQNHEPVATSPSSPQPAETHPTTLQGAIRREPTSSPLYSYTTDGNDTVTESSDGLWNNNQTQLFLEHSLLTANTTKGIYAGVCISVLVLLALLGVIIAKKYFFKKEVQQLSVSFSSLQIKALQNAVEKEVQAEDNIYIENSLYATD

**Q.** With “isotype matched control mAb PK16.3 (antibody)” as the substance, how does the Geometric mean of fluorescence intensity read?
**A.** 8.4

— US20170267750A1, “Method of Treating Ovarian and Renal Cancer Using Antibodies Against T Cell Immunoglobulin Domain and Mucin Domain 1 (TIM-1) Antigen” (Celldex Therapeutics, Inc., priority 2005, published 2017)
